Test results published in the DeepSol protein solubility set.

Experiment: soluble on expression in E. coli; label from the status in PepcDB or PDB records

Row | Sequence | soluble on expression in E. coli
1 | GSLDALGSQPIHLWQFLKELLLKPHSYGRFIRWLNKEKGIFKIEDSAQVARLWGIRKNRPAMNYDKLSRSIRQYYKKGIIRKPDISQRLVYQFVHPI | soluble
2 | MSYQPPPNGQMPGYPQQQFNQQPQFQSNGFPPPAAPQKPAQVPGGFPPPHQQPNGQYQNGGLNGNSSHLAQSVNNMSIGARSTPSAQPPNPYQPAGYPGAPPQQLQQVQRQQTPQQFAAVPQSVQAPSATPAGPLQAMQQAPAPTPGIPQMNQGAHLPPQPHQIHQPTPLRPQIPGFPQAGGSPSSFQAGAPTSQNVQGYPGGPSSAPSAYPGAPQVPQAPNSFIPPGTGGFPPGQPTAGSFPPGPQVPGSYPSGPADIPQGPGMPRAFPPGASAPVAPGMPGAFPPGQGGPGMPGSFPPGAPGPGGPGMPGSFAPGAPGPGGPGGYPSGGPGMPGMQGGYPGGPPQQRQQRLDPNMMPSAVQVIDDDSSTRSGIFPTGYPNAELPPLVSTNSFAQDQGNCNPKFMRSTLYTAPQTNDILKASQIPLAVVISPFASLTEYEKEPPVVDLGPQGPIRCQRCKAYICPFMEFQDGGRSFRCPFCHARTSVEDAYFAHLDHTGRRTDIEMRPELCLGAYDLVATKQYCKNGIAPKEPAFIFMIDVSYNAISNGMLPILCQNLEKVLRNLPRESGQLESSMRIGLATFDQAVHFFDISSASPKMLVMSDVQEPFVPMVDGLLLPYNEALPGLRAALAEIPKLFSQSKTTETILQPVVQAGLDALKCADRAGKVILFSTVLPTYDAPGKLKSKNDRSLLGTDKEKNALVPQEDSYTKLGEQCVKSGVTVDLFLFPNAFIDVATIGQLSAVTGGSIFKFQYFSADKDGVRMLNELERHVSKKIAFDCMARVRTSTGIRPITFTGSFYMENSTDLELATLDESKAFITEIKHDDSLKDPASFIQTAVLYTSMTGQRRLRILNLCLPVTADYNQVYRLADPEALTAFMLKQAVQLNRDKGSSEMRESLSSRCAQFLATYREKCSEGAPLGQLILPESLKLMPLYVNSILKNDAISGGSEMTVDDKVWQMELIRGLRTENVMPLIYPRVMPISDLQINDTEEMKDLPKPVRASSEFLENSKAYIIDNGVILFVWVGSACPQTWVQDVFGVGATNQIDTESGTIPEKDNGHSRALRRAIQLLPRGIRERKTFVVVEKSGLEPWMKKFLVEDKAGPANMSYVDYLVDIHRKIRDLIS | not soluble
3 | MGSDKIHHHHHHMQVEQRTLNTAAHPFQITAYWLDQISDFETAVDYPIMIICPGGGFTYHSGREEAPIATRMMAAGMHTVVLNYQLIVGDQSVYPWALQQLGATIDWITTQASAHHVDCQRIILAGFSAGGHVVATYNGVATQPELRTRYHLDHYQGQHAAIILGYPVIDLTAGFPTTSAARNQITTDARLWAAQRLVTPASKPAFVWQTATDESVPPINSLKYVQAMLQHQVATAYHLFGSGIHGLALANHVTQKPGKDKYLNDQAAIWPQLALRWLQEQGLLAGNY | not soluble
4 | ITGTSTVGVGRGVLGDQKNINTTYSTYYYLQDNTRGNGIFTYDAKYRTTLPGSLWADADNQFFASYDAPAVDAHYYAGVTYDYYKNVHNRLSYDGNNAAIRSSVHYSQGYNNAFWNGSQMVYGDGDGQTFIPLSGGIDVVAHELTHAVTDYTAGLIYQNESGAINEAISDIFGTLVEFYANKNPDWEIGEDVYTPGISGDSLRSMSDPAKYGDPDHYSKRYTGTQDNGGVHINSGIINKAAYLISQGGTHYGVSVVGIGRDKLGKIFYRALTQYLTPTSNFSQLRAAAVQSATDLYGSTSQEVASVKQAFDAVGVK | soluble
5 | MLEFDTTQDQLANIKVIGVGGGGNNAVNRMIEHGVQGVDFIAVNTDAQALNLSKAETKMQIGGKLTRGLGAGANPEVGKKAAEESKEQIQEALRGADMVFVTAGMGGGTGTGAAPVVAQVAKELGALTVGVVTRPFTFEGRKRATQAASGIAAFKENVDTLIVIPNDRLLEIVDKNTPMLEAFREADNVLRQGVQGISDLIATPGLINLDFADVKTIMSNRGSALMGIGSGNGENRAAEAAKKAISSPLLETSIDGAQGVIMNITGGANLSLYEVQEAADIVASASDPEVNMIFGSVINEGLKDDIVVTVIATGFDDSIATQPPKPIIRPNVNHTQQQQQPVAQPPKQREVKREMKREEPVVHERHSDSDSDDIDIPAFLRNRRRR | not soluble
6 | MGSDKIHHHHHHMKNTVAFKTITGRDAVYKAYDAFLGNMGIPHEEVNVDTRFGKAFVIAAGKKDAPVLVLLHGSGINSVMWIKDMEKYSEHYRVYAVDLQGEPGKSDGKQLSFEGSDFDNWLHDVFAGLSVEKASIAGISLGAWLALKFAIANPQMVDKLVLLCPAGVGPQKTSFAYVSLFHMLLWGEKGVERLFRKVNGGKPIPQEIMDYQKLLGNNFNFRREQVPLFSDAELTQLTIPSILFVGQKDVMFHSLKTAQRYRNLVPDAKVIVLREAGHTLIGLVDDILEFLQN | not soluble
7 | MAISDSYLKSCLGRERDKVEEKADRDGLWVRISKKGAVTFFYRFRFLGKQDKMTIGSYPEFGLKAAREEVTKWAAILARGENPRIRQSLDKAKINSQYTFEELFREWHAMVCVQKETSDQILRSFELHVFPKLGKYPAHQLTLHNWLTVLDRLAQGYTEITRRVISNGRQCYSWAVKRQLLEVNPLSEMSGRDFGIQKKMGERTLDRKEIAIVWRAIEDSRLIERNKILYKLSLIWACRVGELRQAEVSHFDFEEGVWTVPWENHKTGRKSKKPIIRPIIPEMLPLIQRAIELAPGRFVFSKYADKPMSEGFHMSISSNLVKFMLKAYNEQVPHFTIHDLRRTARTNFSELTEPHIAEMMLGHKLPGVWSVYDKYTYIEEMREAYSKWWARLMSIIEPDVLEFTPRQTG | not soluble
8 | GMELPVVVQQALGDNAPGVSFRSVSQIDTGHLLRMVLLSDDQGNLQAICRRNDMLDLEALNKRLGRDLRMMQRREQVRVRQKAGLQELPALPSLTGWPTVVDRRVDELEAVALELGEQDLGLMMPAEDFRQLTAKAARHDFAVDTANISVNLDNHAADRDQLHSAIKRFTGLRIQQRLEDTLELPPLPETAQRIIHLRVNPNAVMGDLVDVVESDPSLAAQVVSWASSSFYAAAGRVHSVHDAVSRVLGFDLVMNLAMGLALGRALKHPQDHPDGYVDYWQQAIWQAQSAGILASMMPRGQRPLFGLAYLAGLLHNFGHLVLAQVFPPHFKLVCRSLEVSPHIDSSVIEHYLLGITREQIAAQLMENWGMPDEVTLAIRYQKNPAYDGPHNVYARLLWLGRQLLTERGVALGAGESATQAVYDELGLDRELVQEQFDELVRRKDSIMAMAGMMSQGG | soluble
9 | PREIVDFHAKLINDTPLSTYVGFLDDLQEHDEIDNARALSGIPGVVIVGEQDAVTPQSQSERIVSLWSDAGLQIAPNAGHMIILEQPAIVNKAIDQMVQQAAQNVQKDDA | not soluble
10 | MGGVSDERLDLVNERDEVVGQILRTDPALRWERVRVVNAFLRNSQGQLWIPRRSPSKSLFPNALDVSVGGAVQSGETYEEAFRREAREELNVEIDALSWRPLASFSPFQTTLSSFMCVYELRSDATPIFNPNDISGGEWLTPEHLLARIAAGEAAKGDLAELVRRCYREEE | soluble
11 | MIKLTEYIYLASEQPLSTGSITLNGLSKPTGNLLNKAFFFFINDFEGDPPGKFSYSNYLKTLNYQVCSMCSLPSDNQNIETPSAIALLGYIRNHFKNTCTTKLYILSALNGFENKPISKTVTRKLSDLSYKDLYYQEMKLLKIIR | not soluble
12 | VKIRLHTLLAVLTAAPLLLAAAGCGSKPPSGSPETGAGAGTVATTPASSPVTLAETGSTLLYPLFNLWGPAFHERYPNVTITAQGTGSGAGIAQAAAGTVNIGASDAYLSEGDMAAHKGLMNIALAISAQQVNYNLPGVSEHLKLNGKVLAAMYQGTIKTWDDPQIAALNPGVNLPGTAVVPLHRSDGSGDTFLFTQYLSKQDPEGWGKSPGFGTTVDFPAVPGALGENGNGGMVTGCAETPGCVAYIGISFLDQASQRGLGEAQLGNSSGNFLLPDAQSIQAAAAGFASKTPANQAISMIDGPAPDGYPIINYEYAIVNNRQKDAATAQTLQAFLHWAITDGNKASFLDQVHFQPLPPAVVKLSDALIATISS | soluble
13 | MKRIARLLLSCICLALLSGCLYPQERLKQNQIPYKDQVAAVQSAVDEYRKATGGLLPIKTRDMNTPMYLKYPVDFQKLVPRYMQEPPGNAYESGGVFQYMIIDAETNPTVKLLDLRLAERIRDLKLRLSMYTDKHKYPPFQDVVAPGVFTLDYKKLGYKEPPYVVSPFSGNNLPFVIDGNGEIYIDYRSDLYAALKKYPHHYKPGDDIRPILTDHSLFVPAYSLPYTIDAKTNEPIFFTK | not soluble
14 | MKTRITELLKIDYPIFQGGMAWVADGDLAGAVSKAGGLGIIGGGNAPKEVVKANIDKIKSLTDKPFGVNIMLLSPFVEDIVDLVIEEGVKVVTTGAGNPSKYMERFHEAGIIVIPVVPSVALAKRMEKIGADAVIAEGMEAGGHIGKLTTMTLVRQVATAISIPVIAAGGIADGEGAAAGFMLGAEAVQVGTRFVVAKESNAHPNYKEKILKARDIDTTISAQHFGHAVRAIKNQLTRDFELAEKDAFKQEDPDLEIFEQMGAGALAKAVVHGDVDGGSVMAGQIAGLVSKEETAEEILKDLYYGAAKKIQEEASRWTGVVRND | not soluble
15 | MNIMEIEKTNRMNALFEFYAALLTDKQMNYIELYYADDYSLAEIADEFGVSRQAVYDNIKRTEKILETYEMKLHMYSDYVVRSEIFDDMIAHYPHDEYLQEKISILTSIDNRE | soluble
16 | MEYNLDLARAFLQKHRIAVVEPNPPYLQFSEAQLAQQKAKLAKNLQISTACKWLFVHASTGGSATSLSIEQYAQMLNGIASETNCEIVLTAGKGESEKAYQLAAQITATKAVVYDKNDGLQDFARSIACADLFIAGSTGPLHIAGALNVATIGFYPSRLSALPRRWRPINEEGKHLEHHHHHH | not soluble
17 | MGSDKIHHHHHHMAKEEALAEAQLDSNRKKIQYRNNNISTQFVTPKYISLLIEKYWHEKNKFRRLLIVIECSKYKNESTIFFFRQVMSGEKDWFIRNYCLRILQRFDEVVYLPPKGKGAQEKYNTLVKHFGCDYKEDIGRTPEDIVKELYENDYIEHAKYFDAFISHAVSNADMVDEFVFKLNSLGLVAFVDWKSDRQDLNRSKLSHYTPTILELRMRQSKNLILIRTKESDLSSWVTWEINYFSKLGKKIAVLNLDNEHGKPHELIDTYPTVRIIDGNILVFNKSKQHKLVDWINES | not soluble
18 | MEVIREQEFVNQYHYDARNLEWEEENGTPKTNFEVTFQLANRDEAAKVTSIVAVLQFVIVRDEFVISGVISQMAHIQGRLINEPSEFSQDEVENLAAPLLEIVKRLTYEVTEIALDRPGVTLEFNS | soluble
19 | MGSDKIHHHHHHMCQGLMTHSRCVKSNTMFSIRIKAGRKAYEQIRDGGFSCDRISAFFAPAAGPRWLVATGFDLTLLKAGLLGRKKPVQLIGSSSGAWRFAAWVQPEAEKSYLNLMEAYIRIPYHKDDRAGIVLQNLINVVNSYIEDDALPFALAHKHYRLAVLTARVRHLVASESSWIQSSGLFLCFLMNALSRSTLDHFTERVVFYNGPNPPGFCLKSPFRGRFIQLNRTNFKHAILASGAIPLFVAGIRDIYGAPRGVYRDGGLVDYHQTYDFAESDDDMTLFFHHQERIIPGWFDKRLKHRRTPDVLLDHTLMVFPTEDFVSTLPLGKLPDREDFRSFMDDPATRIRNWQEAVRRSAPLGEQFFELVESGKLRSMVERI | not soluble
20 | MLSLFALSEENKPELDCVANPTLLPHDIMYFDGFLSSEDEAFVADRLDAGEWSTELKRRVQHFGYRYDYKVRAVTPDAYLGPLPPWLGLFAERLVADGYCRTVPDQVIANEYLLGQGISAHVDCVPCFDDTIVSISLLSACEMVFRDLRGPGIRSVLHPRSGVLLRGSSRYDWTHEIPARKSDIVNGVKTARSRRISLTFRKVLGLKRPLEHHHHHH | not soluble
21 | MLSKISESLANLSGAERKVAECALAEPKWFVHAAVAEIAERASVSQPTVIRFCRSLGYKGLPEFKLALSASIGHEGMPYVHEELNADDDMASVVEKVLGNAAASL | not soluble
